The assay has as its target Amyloid Beta (antigen of the Amyloid Beta ELISA) (UniProt P05067 672-713, limits assumed). As to the kind of experiment: Amyloid Beta ELISA, purified antibodies.

Chain of Amyloid Beta (antigen of the Amyloid Beta ELISA) (P05067 672-713 limits assumed): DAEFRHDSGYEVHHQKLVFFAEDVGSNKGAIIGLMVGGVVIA

B1: humanized antibody C2 HuVH2/HuVK3 (antibody, V domains shown)
VH: EVQLVESGGGLVQPGGSLRLSCAASGFTFSSYGMSWVRQAPGKGLEWVASINSNGGSTYYPDSVKGRFTISRDNAKNSLYLQMNSLRAEDTAVYYCASGDYWGQGTTVTVSS
VL: DIVMTQSPLSLPVTPGEPASISCRSSQSLVYSNGDTYLHWYLQKPGQSPKLLIYKVSNRFSGVPDRFSGSGSGTDFTLKISRVEAEDVGVYYCSQSTHVPWTFGQGTKVEIKR
Take B1: the “fold reduction of binding activity against the chimeric control antibody C2 ChVHAF/ChVK” value was about 2 fold.

(Values after patent EP3988566A1 (AC Immune SA, dated 2022).)
